Consider 21 variants from the RNAGym collection of RNA variant scans (doi:10.7554/elife.90254).

The labels stand for the following.
B1: OR4K15 (parent)
chain: GUUAACGGUCAUAGGCCAUGGAAACUAGGAGCACCAUUUCGCUGCCAGUGAAGAAAUGAACAAAGAAAAUCUGGGCCAGGCAGGCAUCAAAAGAAAUAGUCUUGCGCUCAACCAGAAAGUCUGUAAUCAUUUUAAGGGUA

In the data set the parent is B1. Briefly: self-cleavage, relative activity (ratio to wild type); higher = more cleavage; in vitro, sequencing; the parent is a self-cleaving ribozyme.
For GUUAACGGUCAUAGGCCAUGGAAACUAGGAGCACCAUUUCGCUGCCAGUGAAGAAGUGAACAAAGAAAAUCUGGGCCAGGCAGGCAUCAAAAGAAAUAGUCUUGCGCUCAACCAGAAAGUCUGUAAUCAUUCUAAGGGUA [A56G U132C], the self-cleavage is 0.6.

For GUUAACGGUCAUAGGCCAUGGAAACUAGGAGCACCAUUUCGCUGCCAGUGAAGAAGCGAACAAAGAAAAUCUGGGCCAGGCAGGCAUCAAAAGAAAUAGUCUUGCGCUCAACCAGAAAGUCUGUAAUCAUUUUAAGGGUA [A56G U57C], the self-cleavage is 1.27.

As to GUUAACGGUCAUAGGCCAUGGAAACUAGGAGCACCAUUUCGCUGCCAGUGAAGAAGUGAACAAAGAAAAUCUGGGCCAGGCAGGCAUCAAAAGAAAUAGUCUUGCGCUCAACCAGAAAGUCUGUAACCAUUUUAAGGGUA [A56G U127C], the self-cleavage was 0.96.

With GUUAACGGUCAUAGGCCAUGGAAACUAGGAGCACCAUUUCGCUGCCAGUGAAGAAGUGAACAAAGAAAAUCAGGGCCAGGCAGGCAUCAAAAGAAAUAGUCUUGCGCUCAACCAGAAAGUCUGUAAUCAUUUUAAGGGUA [A56G U72A], the self-cleavage was 0.26.

On to GUUAACGGUCAUAGGCCAUGGAAACUAGGAGCACCAUUUCGCUGCCAGUGAAGAAGUGAACAAAGAAAAUCCGGGCCAGGCAGGCAUCAAAAGAAAUAGUCUUGCGCUCAACCAGAAAGUCUGUAAUCAUUUUAAGGGUA [A56G U72C], for which the self-cleavage amounted to 0.28.

As to GUUAACGGUCAUAGGCCAUGGAAACUAGGAGCACCAUUUCGCUGCCAGUGAAGAAGUGAACAAAGAAAAACUGGGCCAGGCAGGCAUCAAAAGAAAUAGUCUUGCGCUCAACCAGAAAGUCUGUAAUCAUUUUAAGGGUA [A56G U70A], the self-cleavage is 1.49.

Turning to GUUAACGGUCAUAGGCCAUGGAAACUAGGAGCACCAUUUCGCUGCCAGUGAAGAAGUGAACAAAGAAAACCUGGGCCAGGCAGGCAUCAAAAGAAAUAGUCUUGCGCUCAACCAGAAAGUCUGUAAUCAUUUUAAGGGUA [A56G U70C], the self-cleavage turned out to be 0.95.

Consider GUUAACGGUCAUAGGCCAUGGAAACUAGGAGCACCAUUUCGCUGCCAGUGAAGAAGUGAACAAAGAAAAUCUGGGCCAGGCAGGCAUCAAAAGAAAUAGUCUUGCGCUCAACCAGAAAGUCUGUAAUCAUUUUAAAGGUA [A56G G136A], for which the self-cleavage worked out at 1.69.

In the case of GUUAACGGUCAUAGGCCAUGGAAACUAGGAGCACCAUUUCGCUGCCAGUGAAGAAGUGAACAAAGAAAAUCUGGGCCAGGCAGGCAUCAAAAGAAAUAGUCUUGCGCUCAACCAGAAAGUCUGUAAUCAUAUUAAGGGUA [A56G U131A], the self-cleavage was 0.6.

Take GUUAACGGUCAUAGGCCAUGGAAACUAGGAGCACCAUUUCGCUGCCAGUGAAGAAGUGAACAAAGAAAAUCUGGGCCAGGCAGGCAUCAAAAGAAAUAGUCUUGCGCUCAACCAGAAAGUCUGUAAUCAUCUUAAGGGUA [A56G U131C]: the self-cleavage is 1.47.

In the case of GUUAACGGUCAUAGGCCAUGGAAACUAGGAGCACCAUUUCGCUGCCAGUGAAGAAGUGAACAAAGAAAAUCUGGGCCAGGCAGGCAUCAAAAGAAAUAGUCUUGCGCUCAACCAGAAAGUCAGUAAUCAUUUUAAGGGUA [A56G U122A], the self-cleavage was 0.63.

With GUUAACGGUCAUAGGCCAUGGAAACUAGGAGCACCAUUUCGCUGCCAGUGAAGAAGUGAACAAAGAAAAUCUGGGCCAGGCAGGCAUCAAAAGAAACAGUCUUGCGCUCAACCAGAAAGUCUGUAAUCAUUUUAAGGGUA [A56G U97C], the self-cleavage is 0.4.

With GUUAACGGUCAUAGGCCAUGGAAACUAGGAGCACCAUUUCGCUGCCAGUGAAGAAUUGAGCAAAGAAAAUCUGGGCCAGGCAGGCAUCAAAAGAAAUAGUCUUGCGCUCAACCAGAAAGUCUGUAAUCAUUUUAAGGGUA [A56U A60G], the self-cleavage came to 0.43.

With GUUAACGGUCAUAGGCCAUGGAAACUAGGAGCACCAUUUCGCUGCCAGUGAAGAAGUGAACAAAGAAAAUCUGGGCCAGGCAGGCAGCAAAAGAAAUAGUCUUGCGCUCAACCAGAAAGUCUGUAAUCAUUUUAAGGGUA [A56G U87G], the self-cleavage came out at 0.32.

Regarding GUUAACGGUCAUAGGCCAUGGAAACUAGGAGCACCAUUUCGCUGCCAGUGAAGAAGUGAACAAAGAAAAUCUGGGCCAGGCAGGCACCAAAAGAAAUAGUCUUGCGCUCAACCAGAAAGUCUGUAAUCAUUUUAAGGGUA [A56G U87C], the self-cleavage came out at 0.74.

As for GUUAACGGUCAUAGGCCAUGGAAACUAGGAGCACCAUUUCGCUGCCAGUGAAGAAGUGAACAAAGAAAAUCUGGGCCAGGCAGGCAUCAAAAGAAAUAGUCGUGCGCUCAACCAGAAAGUCUGUAAUCAUUUUAAGGGUA [A56G U102G], the self-cleavage amounted to 0.89.

In the case of GUUAACGGUCAUAGGCCAUGGAAACUAGGAGCACCAUUUCGCUGCCAGUGAAGAAGUGAACAAAGAAAAUCUGGGCCAGGCAGGCAUCAAAAGAAAUAGUCCUGCGCUCAACCAGAAAGUCUGUAAUCAUUUUAAGGGUA [A56G U102C], the self-cleavage worked out at 1.67.

Regarding GUUAACGGUCAUAGGCCAUGGAAACUAGGAGCACCAUUUCGCUGCCAGUGAAGAAGUGAACAAAGAAAAUCUGGGCCAGGCAGGCAUCAAAAGAAAUAGUCUUGCGCACAACCAGAAAGUCUGUAAUCAUUUUAAGGGUA [A56G U108A], the self-cleavage was 0.02.

As to GUUAACGGUCAUAGGCCAUGGAAACUAGGAGCACCAUUUCGCUGCCAGUGAAGAAGUGAACAAAGAAAAUCUGGGCCAGGCAGGCAUCAAAAGAAAUAGUCUUGCGCUCAACCAGAAAGUCUGAAAUCAUUUUAAGGGUA [A56G U124A], the self-cleavage is 0.78.

With GUUAACGGUCAUAGGCCAUGGAAACUAGGAGCACCAUUUCGCUGCCAGUGAAGAAGUGAACAAAGAAAAUCUGGGCCAGGCAGGCAUCAAAAGAAAUAGUCUUGCGCUCAACCAGAAAGUCUGUAAUCACUUUAAGGGUA [A56G U130C], the self-cleavage was determined as 1.63.

Take GUUAACGGUCAUAGGCCAUGGAAACUAGGAGCACCAUUUCGCUGCCAGUGAAGAAGUGAACAAAGAAAAUCUGGGCCAGGCAGGCAUCAAAAGAAAUAGUCUUGCGCUCAACCAGAAAGACUGUAAUCAUUUUAAGGGUA [A56G U120A]: the self-cleavage was found to be 1.19.
